First the molecules themselves.
B1: PftsY_mut 1+2 (dsDNA)
DNA 1: TTTGTCGACTTATCTTACACAACTGAGACTTCCAATGGTACTACCCTTCTTCCCATCTAGTTTTGAAAAAGTTAAAAATGCCCTCTCCAAAACGCGTTCCGCTCTGGGAGAAAAATTGCGTTCTCTTTTCAGTGGAAAAATCGATGAAGAAACACTGGACTGCAGTTT
DNA 2: AAACTGCAGTCCAGTGTTTCTTCATCGATTTTTCCACTGAAAAGAGAACGCAATTTTTCTCCCAGAGCGGAACGCGTTTTGGAGAGGGCATTTTTAACTTTTTCAAAACTAGATGGGAAGAAGGGTAGTACCATTGGAAGTCTCAGTTGTGTAAGATAAGTCGACAAA
B2: PqueF_mut 1+2+3+4 (dsDNA)
DNA 1: AAACTGCAGGGCCAATCTTTCATTGATTGTCCATTCATGGTCGGCAAGGGTTGAGAGAAGGGCTTTATTTTAGGGTTCGTTCTTTGATAGGGTTGCAGGCATGGTGCAAGTGCAGGATTCAGTTTTAGGAAAAAAGACGTTTTATAAGGATCGGTACGAGTCGACAAA
DNA 2: TTTGTCGACTCGTACCGATCCTTATAAAACGTCTTTTTTCCTAAAACTGAATCCTGCACTTGCACCATGCCTGCAACCCTATCAAAGAACGAACCCTAAAATAAAGCCCTTCTCTCAACCCTTGCCGACCATGAATGGACAATCAATGAAAGATTGGCCCTGCAGTTT

For one series, the target named is T1, His6-HrcA (Waddlia chondrophila) (UniProt D6YSD6).
T1 sequence: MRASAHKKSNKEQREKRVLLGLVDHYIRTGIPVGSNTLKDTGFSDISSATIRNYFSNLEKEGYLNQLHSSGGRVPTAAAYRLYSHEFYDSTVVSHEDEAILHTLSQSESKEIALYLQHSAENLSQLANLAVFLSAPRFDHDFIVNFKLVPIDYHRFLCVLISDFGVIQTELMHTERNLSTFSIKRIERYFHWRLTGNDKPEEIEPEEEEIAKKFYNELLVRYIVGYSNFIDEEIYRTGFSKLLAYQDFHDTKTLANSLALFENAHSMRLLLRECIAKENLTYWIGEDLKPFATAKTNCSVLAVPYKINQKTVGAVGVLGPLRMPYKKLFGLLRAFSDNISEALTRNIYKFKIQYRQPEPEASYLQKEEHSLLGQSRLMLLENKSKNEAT
The series can be described thus: EMSA. Conditions: EMSA with Cy5 PCR probes or 80 ng unlabelled DNA (GelRed); buffer, salt, pH and temperature not in material. (In general: A gel shift assay detects complexes by their altered migration in electrophoresis.)
For “ATTTATAAAGAAACTTCTCTTGGAGGGCTTGCAGTAAACGTGCCTGAATGCTAAAAGATTTGGTATATGGAGCTAATAAAGGATCAAATGCAAAGATACGAAGAACGGGAACTCGTCGAATTCGAAAATCAAGGGATAAAAATTTTTGGA (double strand) [Pwcw_1080]”, the binding result is reported as “binds”.

“CTAGCTAGCTAAACATCTGCTTAAGTGATAACACCTCTAATGCTATCAATATCCTTCGATATTTTGCAATAGAAAATTAGCACTTTGGCAATTAAAGTGCTAATAACTTATCCAGCTCCTCGACAAGATTGCTGAATTTTTTGATGGCAG (double strand) [PgroES1]”: the binding result is listed as “binds”.

Regarding “CATAACTTTTTGGGAATTTCAAGATCGACTCGGGATCGTGCAGTAAAACATTAGTATCTAATACAAAGGTCTTTTTCTTCACATACGCTCCTTTTTAATAGCACTTATAGCTTGAGAGTGCTAAATCAATTGACTTAAATAGGTTTATTT (double strand) [PphoH]”, the binding result is “binds”.

For the molecule “CCTATATCGTATGGCGGCTAAAAGAGCTTGACCGGGCGAAAAGGGAGCAATTTAAGCAAAAGCGGGAACGGTATTTATTGTACCGCTAAAAACTGGCACTTAAATTCATCAACTGCTAATATGTTGACGTAAATCCATTGAACTCTTAAA (double strand) [PgroES3]”, the binding result is “binds”.

In the case of “GCTGCTCAATTGGTCTATAAAAAAGGACTTGACTGGCGCCCTTCTATTGTCGACATTTTACCCGTCATTCTGGAAAAACAAATCTAGCAAATAGCTTTGTTGAGTGCTAATTCCTTCTTGACCTCTTTTAAACCCCTTGTTATAATGAAA (double strand) [PhrcA (HrcA EMSA)]”, the binding result was “binds”.

Another series concerns the target T2, His6-Euo (Waddlia chondrophila) (UniProt D6YSI2).
T2 sequence: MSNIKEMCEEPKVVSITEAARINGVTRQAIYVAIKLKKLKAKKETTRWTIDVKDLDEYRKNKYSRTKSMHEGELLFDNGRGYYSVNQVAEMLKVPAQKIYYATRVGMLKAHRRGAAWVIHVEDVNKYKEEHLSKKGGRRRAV
The series can be described thus: EMSA. Conditions: EMSA with Cy5 PCR probes or 80 ng unlabelled DNA (GelRed); buffer, salt, pH and temperature not in material.
For the molecule “TTCGCGGGCAGCGTTGATCCCGCCAAAACCGCCTCCAATAATAATGACTTTAGGTTTGCTCATATCTTGTTTATATAATTAAAAATGATTTTAAAAATCCAGATTAAAATTGTTCGACGAGTTGATGGATTTCTGAAAAGGAAAGGGGGT (double strand) [Pndh]”, the binding result was “binds”.

For “TGTAATGCCATGGGATCGCGTTTAAGCGAGATCATATAGTAGCTCCTAAAAAAATATTCCTTGCAAGACAAACAAATTTTTTCGTGTAAAGTTTGCATTTTCAAAATCGGACCAGATGAAAATGCGCAAACTCTCTTTTTTACTCCTCC (double strand) [Prhs9]”, the binding result is given as “binds”.

Turning to “CACCGGAAGATGTGGTGCTGATTGCGGGCAGAGGGCATGAACCTTATCAAATATTTGCGCATCAAACAATAGAATTTAAAGATCGCGAAGTTGTAGAGGATATATTACATTCATGAGGAGAAGCAATCGCAGGGAATTCTTAAAAAATAG (double strand) [PamiA]”, the binding result was “binds”.

As for “TTGTCATGAAAAACTCTATGAATCAAATAAGGAGGGGCATTTACATGGCGCTCAGTAAAACTATCAACGAAATGAGGAGCCTTTTTACAGGTCTAATCGATGACCTTCAAAAGGCTGAAGCAGGTAACAAAGCTGCCTCTCAGCGTGTAA (double strand) [PhctA]”, the binding result is “no binding”.

As to “TCGTACCGATCCTTATAAAACGTCTTTTTTCCTAAAACTGAATCCTGCACTTGCACCATGCCTGCAATTTTATCAAAGAACGAATTTTAAAATAAAGAAATTCTCTCAAAAATTGCCGACCATGAATGGACAATCAATGAAAGATTGGCC (double strand) [PqueF (frag0)]”, the binding entry is reported as “binds”.

Regarding “TCCAGTGTTTCTTCATCGATTTTTCCACTGAAAAGAGAACGCAATTTTTCTCCCAGAGCGGAACGCGTTTTGGAGAGGGCATTTTTAACTTTTTCAAAACTAGATTTTAAGAATTTTAGTACCATTGGAAGTCTCAGTTGTGTAAGATAA (double strand) [PftsY (frag0)]”, the binding entry is “binds”.

The target in another series is T3, His6-Euo (Waddlia chondrophila, UniProt D6YSI2 1-142).
T3 sequence: T2 sequence
Put plainly: EMSA; EMSA with Cy5 PCR probes or 80 ng unlabelled DNA (GelRed); buffer, salt, pH and temperature not in material. Conditions: protein: recombinant; tags: His6; chain copies: 2; label: Cy5; blunt.
Regarding B1, the binding result is given as “no binding”.

As to B2, the binding result was “no binding”.

Source of the values: publication PMC4989314, “Regulatory (pan-)genome of an obligate intracellular pathogen in the PVC superphylum”.
